Numbering of substitutions follows the chain as printed. Names and notes keep the numbering of the source. Like-named read-outs stand apart in the source and are kept apart here. One block for each molecule: values may come before it.
Tests used:
UFC1 = target: T1, UFC1 (Homo sapiens, UniProt Q9Y3C8); experiment: In vitro thioester formation (ufmylation) assay, UFC1~UFM1 conjugate; assay type: biochemical; conditions: 70 µM UFM1, 20 µM UFC1, 20 µM UBA5 construct, 1 mM ATP, 50 mM HEPES pH 7.5, 22 °C
T1 construct: Full length UFC1, residues 1–167; modified ubiquitin tag (Ub19) with TEV site (N, cleaved yes); made in house; host or cells: E. coli T7 Express
T1 sequence (Q9Y3C8 1-167): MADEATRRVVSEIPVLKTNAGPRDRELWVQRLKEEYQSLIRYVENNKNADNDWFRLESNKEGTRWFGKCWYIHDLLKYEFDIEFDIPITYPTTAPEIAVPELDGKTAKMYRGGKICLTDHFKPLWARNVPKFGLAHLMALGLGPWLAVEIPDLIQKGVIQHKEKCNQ
Procedure: First, we analyzed the effect of the UBA5 C-terminus on UFM1 transfer to UFC1 with an in vitro thioester formation assay (Figure 1B–E).
Ufmylation reaction assays were adopted from work of Xie. Briefly, 70 µM UFM1, 20 µM UFC1 and 20 µM of different UBA5 constructs were mixed in reaction buffer (50 mM HEPES pH = 7.5, 100 mM NaCl, 5 mM MgCl2). After starting the reaction with addition of 1 mM ATP, the reaction mix was incubated at 22 °C for the desired time. To quench the reaction and prepare electrophoretic samples, 1 µL of the reaction mix was added to 99 µL 1x non-reducing SDS loading buffer and frozen in liquid nitrogen. Sample content was visualized by sodium dodecyl sulfate polyacrylamide gel electrophoresis (SDS-PAGE). The transfer to polyvinylidene difluoride (PVDF) membrane was performed via a Trans-Blot® Turbo™ Transfer System (Bio-Rad, München, Germany). After transfer the membrane was blocked with TBST (Tris-buffered saline with Tween20 buffer, 20 mM Tris, 150 mM NaCl and 0.1% TWEEN 20) containing 5% w/v nonfat dry milk for 1 h, followed by α-UFC1 antibody incubation over night at 4 °C (ab189251 abcam, 1:10,000 in TBST containing 5% w/v nonfat dry milk). After washing with TBST the membrane was incubated with secondary antibody (anti-rabbit-HRP) for 1 h at RT and again washed with TBST. […] For quantification of UFC1 ufmylation coloc2 software implemented in ImageJ was used.

UBA5 [1] = conditions: cited from earlier work
Text: Another conserved region in UBA5 is located at it very C-terminus (R3, residues 393–404) and is predicted to have a helical conformation. […] UFC1, the only known E2 enzyme for UFM1, was characterized structurally a few years after discovery of the UFM1 cascade. […] In our structure we observed that the UFC1 K33 sidechain forms an intermolecular hydrogen bond with the UBA5 D389 sidechain (Figure 3F). In contrast, UFC1 Q31 is not in contact with any of the UBA5 R3 residue and could not affect the UBA5:UFC1 interaction.

UBA5 [2] = conditions: in vitro; cited from earlier work
Text: The UBA5 C-terminal part (Figure 1A) plays a complex regulatory role, consisting of a few conserved regions that mediate interaction of UBA5 with other key players in the ufmylation cascade. The first sequence is a conserved region (R1, residues 334–348), interacting with UFM1 [10, 29, 30, 31, 32] and also with LC3/GABARAP proteins. This region (called LIR/UFIM by its dual nature) is important for the initial binding of UFM1 to UBA5 [10, 29, 31, 32] and for the following UFM1 activation in a trans-fashion. Trans-activation means that UBA5 forms an active ho ...

UFC1~UFM1 conjugation (UFC1; 7 h): 80%
UFC1 conjugated to UFM1 (UFC1~UFM1) (UFC1; within 30 min, Western blot, triplicates): less than 5%
B1: AD^1–330: UBA5 adenylation domain, residues 1–330 (protein, UniProt Q9GZZ9 1-330, looked up, fragment)
chain: MAESVERLQQRVQELERELAQERSLQVPRSGDGGGGRVRIEKMSSEVVDSNPYSRLMALKRMGIVSDYEKIRTFAVAIVGVGGVGSVTAEMLTRCGIGKLLLFDYDKVELANMNRLFFQPHQAGLSKVQAAEHTLRNINPDVLFEVHNYNITTVENFQHFMDRISNGGLEEGKPVDLVLSCVDNFEARMTINTACNELGQTWMESGVSENAVSGHIQLIIPGESACFACAPPLVVAANIDEKTLKREGVCAASLPTTMGVVAGILVQNVLKFLLNFGTVSFYLGYNAMQDFFPTMSMKPNPQCDDRNCRKQQEEYKKKVAALPKQEVIQE
modifications: adenylation domain

B2: UFC1 K33A: UFC1 K33A mutation, literature (protein, UniProt Q9Y3C8 1-167, looked up, variant K33A)
Ubiquitin-fold …: T1 sequence (Q9Y3C8 1-167) with K33A
effect of UFC1 mutation on UBA5 binding and UFM1 transfer (UBA5 [1]): significantly reduces both UBA5 binding and UFM1 transfer from UBA5 to UFC1
effect of UFC1 mutation on UBA5 binding and UFM1 transfer (UBA5 [1]; listed as K33A): impaired UBA5 binding and UFM1 transfer to UFC1

B3: GABARAP: GABARAP, residues 3–116 (protein)
chain: GAMFVYKEEHPFEKRRSEGEKIRKKYPDRVPVIVEKAPKARIGDLDKKKYLVPSDLTVGQFYFLIRKRIHLRAEDALFFFVNNVIPPTSATMGQLYQEHHEEDFFLYIAYSDESVYG
modifications: left off: modified ubiquitin tag (Ub19), N-terminal, cleaved
effect on UFM1 binding to UBA5 (UBA5 [2]): inhibit UFM1 binding to UBA5
